Results as given in patent publication US9487580.

Molecular target: T1, recombinant human IL-23 (p19/p40 heterodimer) (human, UniProt Q9NPF7)
T1 chain 1: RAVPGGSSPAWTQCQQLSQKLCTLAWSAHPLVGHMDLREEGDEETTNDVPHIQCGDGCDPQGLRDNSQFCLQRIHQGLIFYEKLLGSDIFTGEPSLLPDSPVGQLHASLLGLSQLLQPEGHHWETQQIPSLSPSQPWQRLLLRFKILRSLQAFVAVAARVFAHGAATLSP
T1 chain 2: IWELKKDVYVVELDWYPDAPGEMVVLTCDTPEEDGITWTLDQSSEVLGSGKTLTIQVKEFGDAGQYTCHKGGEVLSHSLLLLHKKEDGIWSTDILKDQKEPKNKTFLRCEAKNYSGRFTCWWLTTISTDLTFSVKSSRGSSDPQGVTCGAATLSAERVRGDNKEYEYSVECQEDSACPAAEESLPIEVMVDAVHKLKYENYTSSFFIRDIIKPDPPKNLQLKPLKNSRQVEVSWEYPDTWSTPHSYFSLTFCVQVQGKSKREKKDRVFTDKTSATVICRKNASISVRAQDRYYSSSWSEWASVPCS
Assay: KinExA

Kd: 3.99 pM
B1: Antibody B (antibody, V domains shown)
VH: QVQLQESGPGLVKPSQTLSLTCTVSGGSISSGGYYWSWIRQHPGKGLEWIGHIHYSGNTYYNPSLKSRVTISVDTSKNQFSLKLSSVTAADTAVYYCARNRGFYYGMDVWGQGTTVTVSS
VL: DIQMTQSPSSVSASVGDRVTITCRASQVISSWLAWYQQKPGKAPSLLIYAASSLQSGVPSRFSGSVSGTDFTLTISSLQPEDFATYYCQQANSFPFTFGPGTKVDFK
